Results: publication PMC3206214 (Molecular cell, 2011)

T1: MBP-BSU1-S764A (Arabidopsis, UniProt Q9LR78 1-793, S764A)
T1 sequence (looked up): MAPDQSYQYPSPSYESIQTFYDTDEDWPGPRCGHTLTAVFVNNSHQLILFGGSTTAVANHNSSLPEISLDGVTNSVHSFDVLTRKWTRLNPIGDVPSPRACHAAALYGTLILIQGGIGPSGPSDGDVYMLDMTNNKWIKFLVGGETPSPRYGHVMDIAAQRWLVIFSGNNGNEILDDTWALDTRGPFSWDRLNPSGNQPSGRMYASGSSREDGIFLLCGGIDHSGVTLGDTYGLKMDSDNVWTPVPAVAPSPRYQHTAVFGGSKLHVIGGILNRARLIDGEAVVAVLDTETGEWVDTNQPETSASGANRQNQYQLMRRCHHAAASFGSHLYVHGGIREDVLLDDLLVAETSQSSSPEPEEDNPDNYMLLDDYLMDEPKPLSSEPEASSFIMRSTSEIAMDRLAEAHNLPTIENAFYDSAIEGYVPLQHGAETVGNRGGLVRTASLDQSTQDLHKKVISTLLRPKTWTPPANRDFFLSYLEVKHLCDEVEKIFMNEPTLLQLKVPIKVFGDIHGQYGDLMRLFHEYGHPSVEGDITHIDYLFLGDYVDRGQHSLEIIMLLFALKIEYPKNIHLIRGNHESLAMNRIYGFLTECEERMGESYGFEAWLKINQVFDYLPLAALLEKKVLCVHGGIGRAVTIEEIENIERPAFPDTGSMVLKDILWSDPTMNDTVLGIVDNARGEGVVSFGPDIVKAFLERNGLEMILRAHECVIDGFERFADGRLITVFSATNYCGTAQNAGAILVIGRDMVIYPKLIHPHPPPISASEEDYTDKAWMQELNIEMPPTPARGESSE


How the values were obtained:
Assay in all cases: far-Western, overlay or dot blot
[1] = molecular target: T1, MBP-BSU1-S764A
[2] = molecular target: MBP-BSU1 pre-incubated with GST-CDG1 and ATP (Arabidopsis, UniProt Q9LR78 1-793, phosphoserine at 764 (by CDG1))
[3] = molecular target: MBP-BSU1 (Arabidopsis, UniProt Q9LR78 1-793)

binding result [1] | binding result [2] | binding result [3] | Binder
binds | binds |  | GST-BIN2 (natural protein, Arabidopsis, UniProt Q39011 1-380, looked up) MADDKEMPAAVVDGHDQVTGHIISTTIGGKNGEPKQTISYMAERVVGTGSFGIVFQAKCLETGETVAIKKVLQDRRYKNRELQLMRVMDHPNVVCLKHCFFSTTSKDELFLNLVMEYVPESLYRVLKHYSSANQRMPLVYVKLYMYQIFRGLAYIHNVAGVCHRDLKPQNLLVDPLTHQVKICDFGSAKQLVKGEANISYICSRFYRAPELIFGATEYTTSIDIWSAGCVLAELLLGQPLFPGENAVDQLVEIIKVLGTPTREEIRCMNPHYTDFRFPQIKAHPWHKIFHKRMPPEAIDFASRLLQYSPSLRCTALEACAHPFFDELREPNARLPNGRPFPPLFNFKQEVAGSSPELVNKLIPDHIKRQLGLSFLNQSGT
 |  | binds | GST-CDG1 (natural protein, Arabidopsis, UniProt Q9LSE1 1-432, looked up) MVSCLCFRPSRKTKLKDKSHKRSIRNQTSSSSAQPAGTAKEVDSSSSQTVVQDSSRYRCQIFSYRELAIATNSFRNESLIGRGGFGTVYKGRLSTGQNIAVKMLDQSGIQGDKEFLVEVLMLSLLHHRNLVHLFGYCAEGDQRLVVYEYMPLGSVEDHLYDLSEGQEALDWKTRMKIALGAAKGLAFLHNEAQPPVIYRDLKTSNILLDHDYKPKLSDFGLAKFGPSDDMSHVSTRVMGTHGYCAPEYANTGKLTLKSDIYSFGVVLLELISGRKALMPSSECVGNQSRYLVHWARPLFLNGRIRQIVDPRLARKGGFSNILLYRGIEVAFLCLAEEANARPSISQVVECLKYIIDHTIRKERRTRRRLLGGNKDGAGTSRSPDETMMRMLEEEEEYVTSEEAIERRRVIVDDARTWAGMNRRGATPPTPTP
 |  | binds | GST-CDG1 pre-incubated with GST-BRI1-K and ATP (natural protein, Arabidopsis, UniProt Q9LSE1 1-432, looked up, phosphoserine at 44, 47 and 234 (BRI1 phosphorylation sites, found by mass spectrometry on GST-CDG1-Y147G)) MVSCLCFRPSRKTKLKDKSHKRSIRNQTSSSSAQPAGTAKEVDSSSSQTVVQDSSRYRCQIFSYRELAIATNSFRNESLIGRGGFGTVYKGRLSTGQNIAVKMLDQSGIQGDKEFLVEVLMLSLLHHRNLVHLFGYCAEGDQRLVVYEYMPLGSVEDHLYDLSEGQEALDWKTRMKIALGAAKGLAFLHNEAQPPVIYRDLKTSNILLDHDYKPKLSDFGLAKFGPSDDMSHVSTRVMGTHGYCAPEYANTGKLTLKSDIYSFGVVLLELISGRKALMPSSECVGNQSRYLVHWARPLFLNGRIRQIVDPRLARKGGFSNILLYRGIEVAFLCLAEEANARPSISQVVECLKYIIDHTIRKERRTRRRLLGGNKDGAGTSRSPDETMMRMLEEEEEYVTSEEAIERRRVIVDDARTWAGMNRRGATPPTPTP
